Experimental data published in patent US11078245B2, “Colon and pancreas cancer peptidomimetics” (PRECISION BIOLOGICS, INC., priority 2010, dated 2021).

How the values were obtained:
[1] = tested on: Colorectal cancer biopsies; experiment: IHC staining of patient tumor biopsies with NEO-101; type: binding, human
Method: (§1) Patients enrolled on the clinical diagnostic study agreed to provide their tumor biopsy or surgical specimen to be stained immunohistochemically with NEO-101. Tumor sections were prepared as slides, and two additional slides were prepared for negative control (human IgG1) and positive control (cytokeratin) staining to ensure quality controls for the IHC method. More specifically, tumor biopsy specimens from colorectal and pancreas cancer patients were deparaffinized at about 60° C. for 30 min prior to staining with NEO-101. Subsequently, all staining steps were carried out at about 25° C. Slides (4 μm) were blocked with Peroxo-Bloc® inhibitor (Zymed Laboratories) for about 2 min, rinsed with phosphate-buffered saline (PBS), and blocked with CAS (Zymed) for an additional about 10 minutes. Slides were stained with about 10 μg/mL of biotin-labeled NEO-101 for 1 hour, and washed three times with PBS containing 0.05% Tween®-20 non-ionic detergent. […] A 1:400 dilution of peroxidase-conjugated streptavidin (Dako North America, Inc.) was then applied to the slides for about 30 minutes and slides were washed three times. A solution of DAB (Zymed) was applied for about 2-3 minutes then rinsed with PBS. A solution of hematoxylin was then applied for about 3 minutes and rinsed with tap water until clear. The slides were dehydrated with xylene and a coverslip was added using Permount® mounting medium. Additional consecutive slides were stained with human cytokeratin AE1/AE3 (Abcam plc) as a positive control, and human IgG1 isotype as a negative control (AXXORA, LLC).
(§2) All antibodies were biotinylated prior to use and tested independently at various concentrations using human tumor tissues known to react with the antibodies. Primary antibody (NEO-101) was used at about 10 μg/mL, detected with streptavidin-horseradish peroxidase conjugate, and mounted on slides. A positive staining scale ranging from +1 to +5 was applied to the staining results, measured by light microscopy. Tissues stained with NEO-101 were considered positive (+1 to +5) for an average of 79% of the patient tumor samples (30 of 38 of both colorectal and pancreatic cancer biopsies) including the 5 pancreatic tumor samples. Tissues that were negative or considered weak staining by the immunohistochemist were considered negative. These staining results are similar to results from several other studies completed with antibodies using tissue array slides, and both frozen and paraffin-embedded surgical specimens.

[2] = tested on: Pancreatic cancer biopsies; experiment: as above; type: binding, human
Method: as §1, §2

human tissues = experiment: Immunohistochemistry of human tissues, overall; type: binding
From the text: Thus, the NPC-1 epitope is expressed by colon and pancreatic tumor cells but not normal colon or pancreatic […] cells. Therefore, the NPC-1 epitope may be used as a tumor-specific marker or a therapeutic target for colon and pancreatic cancer. Further, peptidomimetics of the NPC-1 epitope (e.g., the polypeptide of SEQ ID NO: 1-24) as described herein may be used in the detection and treatment of cancer (e.g., colon, pancreas, breast, lung, ovarian, stomach, esophageal).

B1: NEO-101: Chimeric NEO-101 antibody, engineered in CHO-DG44 production cell clone 4B7; targets a variant of MUC5AC (protein)
light: QVVLTQSPVIMSASPGEKVTMTCSASSSISYMYWYQQKPGTSPKRWIYDTSKLASGVPARFSGSGSGTSYSLTISNMEAGDAATYYCHQRDSYPWTFGGGTNLEIK
heavy: QVQLKESGPDLVAPSQSLSITCTVSGFSLSKFGVNWVRQPPGKGLEWLGVIWGDGSTSYNSGLISRLSISKENSKSQVFLKLNSLQADDTATYYCVKPGGDYWGHGTSVTVSS
% Positive by IHC with NEO-1O1 [1]: 76%
Positive by IHC, subjects/total [1]: (25/33)
% Positive by IHC with NEO-1O1 [2]: 100%
Positive by IHC, subjects/total [2]: (5/5)
cross-reactivity in other normal human tissues stained (human tissues): no cross-reactivity
